The values below come from PMC4876856.

The target in the experiment is truncated rabbit TRPV2 (residues 56-560 and 581-721) (rabbit) (UniProt G1SNM3). The experiment is described as follows: cryo-EM structure.

Consider “truncated rabbit TRPV2 (residues 56-560 and 581-721) (from UniProt G1SNM3 56-560; G1SNM3 581-721) (domain or fragment)”, for which the stoichiometry N worked out at 4.

Usually stoichiometry N stands for the number of molecules, sites or subunits per partner or assembly.
